This note sets out measurements from US20240197828A1 (FEINSTEIN INSTITUTES FOR MEDICAL RESEARCH, published 2024).

Positions count from the first letter of the chain named.

Usually Kd stands for the equilibrium constant for the complex coming apart.

To fix the notation:
B1: MFG-E8-derived oligopeptide 3 (MOP3) (peptide)
peptide: RGDSSSYKTWNLRAFGWY
notes: Synthetic 18-residue chimeric peptide: RGD followed by 15 residues of the mouse MFG-E8 discoidin domain 2
B2: recombinant murine (rm) CIRP (ligand, mouse, UniProt P60824 1-172, looked up)
chain: MASDEGKLFVGGLSFDTNEQALEQVFSKYGQISEVVVVKDRETQRSRGFGFVTFENIDDAKDAMMAMNGKSVDGRQIRVDQAGKSSDNRSRGYRGGSAGGRGFFRGGRSRGRGFSRGGGDRGYGGGRFESRSGGYGGSRDYYASRSQGGSYGYRSSGGSYRDSYDSYATHNE
notes: For SPR it was bought (Cat # CSB-EP613483He0); For the cell assays it was made in the lab and, in the uptake experiments, labelled with FITC; also called eCIRP
B3: recombinant human CIRP (rhCIRP) (ligand, UniProt Q14011 1-172, looked up)
chain: B2 chain with A21S, S109G, G126N, A143S, G148S, S150G, G152S, Y153D
notes: The source of rhCIRP is not described in the methods

Experiment [1] has as its target T1, αvβ3-integrin (recombinant, R&D Systems Cat #7889-AV-050).
T1 construct: Used as the analyte in SPR over immobilised MOP3; also called αvβ3-integrin receptor; auß3-integrin
Put plainly: SPR (Biacore/OpenSPR); αvβ3-integrin as analyte at 31.25-125 nM; 1:1 fit. The protocol: (§1) To examine the direct interaction between rmCIRP and rmMFG-E8, surface plasmon resonance (SPR), OpenSPR (Nicoya), was performed between rmCIRP and rmMFG-E8. rmCIRP was immobilized on carboxyl sensor and rmMFG-E8 was injected as an analyte in concentrations of 15.7 nM to 250 nM. Binding reactions were performed in DPBS, with Calcium and Magnesium, 0.05% P20, 1% BSA, and pH 7.4. In parallel experiments, binding of MOP3 to rmCIRP (analyte) was performed with concentrations of 0.5 μm to 2 μM, and binding of MOP3 to αᵥβ₃-integrin (analyte) was performed in concentrations of 31.25 nM to 125 nM. All binding reactions were performed in PBS 0.05% P20, pH7.4. Briefly, the carboxyl sensor was first cleaned by injection 10 mM HCL 150 μl, followed by injection of 150 μl of the mixture of 1 aliquot of N-ethyl-N′-[3-[…]]-carbodiimide (EDC) and 1 aliquot of N-hydroxysuccinimide (NHS) to activate the sensor surface. An aliquot of 200 μl of 50 μg/ml of the ligand diluted in 10 mM sodium acetate (pH 5.5) was injected at 20 μl/minutes into flow cell-channel-2 of the sensor for immobilization. Next, 150 μl of 1 M […] (pH 8.5) was injected to deactivate the remaining active sites on channel 1&2. […] To evaluate binding, the analyte was injected into flow cell-1 and flow cell-2 and increasing concentrations and real-time interaction data were analyzed by TraceDrawer (Nicoya). […]
In general terms: Surface plasmon resonance follows binding to a sensor surface in real time, without labels.

Experiment [2] addresses B2. Put plainly: SPR (Example 1); Example 1; paragraph 73 gives a separate value of 3.1×10^-7 M.
Experiment [3] has as its target B2. The experiment in a line: SPR (Biacore/OpenSPR); rmCIRP as analyte at 0.5-2 µM; 1:1 fit; Example 2, Biacore. As for the experimental part:
as §1

In experiment [4] the target is T2, recombinant murine MFG-E8 (rmMFG-E8) (mouse, UniProt P21956 23-463).
T2 construct: For SPR it was bought from R&D Systems (Cat #2767-MF-050); For the cell assays it was made in the lab; also called milk fat globule-epidermal growth factor-factor VIII; AlexaFluor568-rmMFG-E8
T2 sequence: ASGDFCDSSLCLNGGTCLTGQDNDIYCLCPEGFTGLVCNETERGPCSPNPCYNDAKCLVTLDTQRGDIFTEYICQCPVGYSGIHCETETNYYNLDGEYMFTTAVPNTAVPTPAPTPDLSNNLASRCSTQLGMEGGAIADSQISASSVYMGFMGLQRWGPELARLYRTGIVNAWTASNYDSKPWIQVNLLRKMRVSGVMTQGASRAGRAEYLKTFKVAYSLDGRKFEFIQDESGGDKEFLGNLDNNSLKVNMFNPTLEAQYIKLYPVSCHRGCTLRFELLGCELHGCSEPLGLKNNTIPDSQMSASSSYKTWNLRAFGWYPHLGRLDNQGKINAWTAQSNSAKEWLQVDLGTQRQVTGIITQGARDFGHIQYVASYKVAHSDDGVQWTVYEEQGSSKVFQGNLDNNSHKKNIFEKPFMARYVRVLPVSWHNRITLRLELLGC
The experiment in a line: SPR (Biacore/OpenSPR); rmCIRP immobilised, rmMFG-E8 as analyte at 15.7-250 nM; 1:1 fit; mouse proteins. As for the experimental part:
as §1

Experiment [5] deals with T3, recombinant human MFG-E8 (rhMFG-E8) (human, UniProt Q08431 24-387, limits assumed).
T3 sequence (looked up): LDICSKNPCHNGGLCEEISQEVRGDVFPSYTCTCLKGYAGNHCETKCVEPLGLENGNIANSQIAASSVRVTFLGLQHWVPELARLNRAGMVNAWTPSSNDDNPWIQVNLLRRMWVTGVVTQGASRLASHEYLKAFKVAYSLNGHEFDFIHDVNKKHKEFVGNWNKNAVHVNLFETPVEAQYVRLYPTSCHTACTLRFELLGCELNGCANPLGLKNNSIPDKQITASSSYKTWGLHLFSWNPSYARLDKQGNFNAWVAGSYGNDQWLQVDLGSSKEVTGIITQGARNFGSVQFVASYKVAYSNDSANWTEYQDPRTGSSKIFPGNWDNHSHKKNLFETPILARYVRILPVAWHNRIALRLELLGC
The experiment in a line: SPR (Biacore); human proteins.

T1 sequence (P43406 31-988, chain 1 of 2): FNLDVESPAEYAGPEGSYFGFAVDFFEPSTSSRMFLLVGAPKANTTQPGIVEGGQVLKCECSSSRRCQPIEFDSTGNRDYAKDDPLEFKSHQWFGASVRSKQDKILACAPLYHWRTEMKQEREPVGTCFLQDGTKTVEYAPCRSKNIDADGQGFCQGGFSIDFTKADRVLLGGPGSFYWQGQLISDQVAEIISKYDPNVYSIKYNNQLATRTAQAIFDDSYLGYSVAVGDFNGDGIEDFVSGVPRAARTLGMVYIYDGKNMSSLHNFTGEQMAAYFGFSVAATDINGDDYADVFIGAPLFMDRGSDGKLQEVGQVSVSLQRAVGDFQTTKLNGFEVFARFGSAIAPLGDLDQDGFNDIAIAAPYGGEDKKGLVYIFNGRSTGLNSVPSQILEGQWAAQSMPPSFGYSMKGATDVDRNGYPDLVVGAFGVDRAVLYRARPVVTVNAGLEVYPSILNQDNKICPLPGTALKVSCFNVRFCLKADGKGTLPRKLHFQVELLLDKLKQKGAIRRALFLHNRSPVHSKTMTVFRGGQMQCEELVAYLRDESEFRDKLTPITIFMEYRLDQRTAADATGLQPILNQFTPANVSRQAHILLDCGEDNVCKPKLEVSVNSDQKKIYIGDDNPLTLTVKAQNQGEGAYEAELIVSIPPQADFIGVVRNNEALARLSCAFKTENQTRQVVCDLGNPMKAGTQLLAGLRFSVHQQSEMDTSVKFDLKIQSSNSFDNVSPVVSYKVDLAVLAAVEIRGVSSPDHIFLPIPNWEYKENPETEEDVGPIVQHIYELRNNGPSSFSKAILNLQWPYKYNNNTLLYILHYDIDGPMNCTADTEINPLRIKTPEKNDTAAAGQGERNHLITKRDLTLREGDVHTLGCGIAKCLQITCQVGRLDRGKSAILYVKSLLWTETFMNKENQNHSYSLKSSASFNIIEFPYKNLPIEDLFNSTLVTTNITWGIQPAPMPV
T1 sequence (O54890 26-717, chain 2 of 2, further chain): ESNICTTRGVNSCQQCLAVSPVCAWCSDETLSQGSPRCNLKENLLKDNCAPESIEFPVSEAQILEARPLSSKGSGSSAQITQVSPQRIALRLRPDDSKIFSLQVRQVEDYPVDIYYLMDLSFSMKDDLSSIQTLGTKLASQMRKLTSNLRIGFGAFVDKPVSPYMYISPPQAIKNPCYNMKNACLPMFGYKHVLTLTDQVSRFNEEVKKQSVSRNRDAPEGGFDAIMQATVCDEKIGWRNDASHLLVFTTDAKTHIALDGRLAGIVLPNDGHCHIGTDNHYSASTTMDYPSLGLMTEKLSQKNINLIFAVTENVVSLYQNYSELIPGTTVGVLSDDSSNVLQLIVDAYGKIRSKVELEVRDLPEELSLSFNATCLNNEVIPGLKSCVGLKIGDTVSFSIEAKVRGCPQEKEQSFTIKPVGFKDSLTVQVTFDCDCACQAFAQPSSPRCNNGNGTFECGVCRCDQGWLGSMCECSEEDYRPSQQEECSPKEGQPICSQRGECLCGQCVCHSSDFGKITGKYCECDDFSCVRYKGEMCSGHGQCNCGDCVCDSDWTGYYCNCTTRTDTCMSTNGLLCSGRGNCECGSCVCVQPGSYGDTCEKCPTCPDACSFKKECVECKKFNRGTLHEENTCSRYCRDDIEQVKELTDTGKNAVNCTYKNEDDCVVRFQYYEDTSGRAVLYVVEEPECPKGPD

As for B1, the figures for the dissociation constant (Kd) in experiment [1], in experiment [2] and in experiment [3] were 776 nM, 13 nM and 310 nM, respectively. As to B2, the dissociation constant Kd in experiment [4] was found to be 200 nM. On to B3, for which the dissociation constant Kd in experiment [5] worked out at 29 nM.
